The target of assay [1] is PP1α (7–330) (UniProt P62136).
The target in assay [2] is native catalytic subunit of PP1 from rabbit skeletal muscle (PP1^N) (rabbit) (UniProt P62139).
Chain of UniProt P62139 (P62139 whole entry): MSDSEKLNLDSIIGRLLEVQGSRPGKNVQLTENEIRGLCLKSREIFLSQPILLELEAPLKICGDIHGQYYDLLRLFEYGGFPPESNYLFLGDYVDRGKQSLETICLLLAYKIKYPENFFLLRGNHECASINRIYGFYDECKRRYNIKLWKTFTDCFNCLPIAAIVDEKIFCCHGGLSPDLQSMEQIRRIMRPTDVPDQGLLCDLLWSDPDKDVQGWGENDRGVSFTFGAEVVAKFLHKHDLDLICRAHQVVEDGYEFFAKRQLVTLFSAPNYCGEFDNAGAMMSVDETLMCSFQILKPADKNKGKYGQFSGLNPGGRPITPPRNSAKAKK

Chain of PPP1R15A^325–636-MBP (O75807 325-636): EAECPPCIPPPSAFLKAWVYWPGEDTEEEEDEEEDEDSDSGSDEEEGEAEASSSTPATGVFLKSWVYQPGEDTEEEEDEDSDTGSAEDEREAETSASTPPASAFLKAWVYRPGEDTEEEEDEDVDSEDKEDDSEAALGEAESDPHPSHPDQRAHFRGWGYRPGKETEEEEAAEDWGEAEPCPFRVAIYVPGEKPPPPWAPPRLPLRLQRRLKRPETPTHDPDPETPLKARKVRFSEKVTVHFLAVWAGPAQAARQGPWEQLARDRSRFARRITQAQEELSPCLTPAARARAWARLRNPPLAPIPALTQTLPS
Chain of MBP-PPP1R15A^325–636 (O75807 325-636): as above
Chain of UniProt P62136 (P62136 7-330): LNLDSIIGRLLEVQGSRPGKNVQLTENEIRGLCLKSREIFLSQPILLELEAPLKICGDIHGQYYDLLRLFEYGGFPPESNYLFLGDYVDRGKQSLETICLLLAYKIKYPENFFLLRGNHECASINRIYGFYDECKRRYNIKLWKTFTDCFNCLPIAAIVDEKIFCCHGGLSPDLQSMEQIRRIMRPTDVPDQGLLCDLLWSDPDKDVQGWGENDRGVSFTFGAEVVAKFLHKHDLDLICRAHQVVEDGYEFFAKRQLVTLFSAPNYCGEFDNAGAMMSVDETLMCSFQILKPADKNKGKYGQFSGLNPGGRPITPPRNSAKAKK

The substance “MBP-PPP1R15A^325–636 (from UniProt O75807 325-636) (domain or fragment)” came in with an EC50 of the stimulation of eIF2α^P (2 μM) dephosphorylation by PP1α (24 nM) with G-actin (400 nM), MBP-PPP1R15A^325–636 0–100 nM, 20 min at 30 °C in assay [1] of 6 nM.
For the substance “PPP1R15A^325–636-MBP (from UniProt O75807 325-636) (domain or fragment)”, the EC50 of the stimulation of eIF2α^P (2 μM) dephosphorylation by PP1^N (20 nM) with G-actin (400 nM), PPP1R15A^325–636-MBP 0–100 nM, 30 min at 30 °C in assay [2] amounted to 58 nM.

The values above are taken from article PMC5961032.
